Reference: patent publication US20260184766A1

Tests used:
[1] = molecular target: T1, SARS CoV-2 spike trimer protein from the parental Wuhan-Hu-1 isolate (recombinant stabilized extracellular domain) (SARS-CoV-2 (Wuhan-Hu-1)); assay: ELISA, spike coated, chimeric IgG1; settings: remark: other sources report otherwise
[2] = molecular target: T1, SARS CoV-2 spike trimer protein from …; assay: ELISA on coated recombinant stabilized spike protein, panel WT, OD 450; settings: remark: other sources report otherwise
[3] = molecular target: T1, SARS CoV-2 spike trimer protein from …; assay: ELISA on coated spike protein, anti-human Fc-HRP, OD450; settings: remark: other sources report otherwise
[4] = molecular target: SARS-CoV-2 (antigen of the ELISA of FIG. 5E); assay: ELISA on SARS-CoV-2 antigen (spike or RBD not stated), OD 450

Binder | EC50 [1] [nM] | EC50 (read off the curve) [2] [nM] | EC50 (read off the curve) [3] [nM] | EC50 (read off the curve) [4] [nM]
SKM chimeric bovine-human IgG1 (ultralong CDR3) (antibody) VH: QVQLRESGPSLVKPSQTLSLTCTASGFSLSDKAVGWVRQAPGKALEWLGSIDTGGNTGYNPGLKSRLSITKDNSKSQVSLSVSSVTTEDSATYYCTTVHQETLRSCPDGYIDNSGCTADWGCAALDCWRRRFGYHSTDPSHYTGATYIYTYSLHIDAWGQGLLVTVSS VL: QAVLNQPSSVSGSLGQRVSITCSGSSSNVGNGYVSWYQLIPGSAPRTLIYGDTSRASGVPDRFSGSRSGNTATLTISSLQAEDEADYFCASAEDSSSNAVFGSGTTLTVL | 0.19 | 0.2 | – | –
R4C1 chimeric bovine-human IgG1 (ultralong CDR3) (antibody) VH: QVQLRESGPSLVKPSQTLSLTCTASGFSLSDKAVGWVRQAPGKPLEWLGSIDTAENTGYNPGLKSRLSITKDNSKSQVSLSVSSVTTEDSATYYCATVHQKTRKEKNCPDGYIYSSNTASGYDCGVWICRRVGSAFCSRTGDYTSPSEFDIYEFYVEGWGQGLLVTVSS VL: QAVLNQPSSVSGSLGQRVSITCSGSSSNVGNGYVSWYQLIPGSAPRTLIYGDTSRASGVPDRFSGSRSGNTATLTISSLQAEDEADYFCASAEDSSSNAVFGSGTTLTVL | 0.2 | 0.3 | 0.03 | –
R2D9 chimeric bovine-human IgG1 (ultralong CDR3) (antibody) VH: QVQLRESGPSLVKPSQTLSLTCTASGFSLSDKAIGWVRQAPGKALEWLGSIDTRGNTGYNPGLKSRLSITKDSSKSQVSLSVNSVTTEDSATYLCAIVQQITHKTCPNGYNWFDRCCSWDGTCGDGCCSNRAWPSGNGRADSSIGETYGYEFHVAAWGQGLLVTVSS VL: QAVLNQPSSVSGSLGQRVSITCSGSSSNVGNGYVSWYQLIPGSAPRTLIYGDTSRASGVPDRFSGSRSGNTATLTISSLQAEDEADYFCASAEDSSSNAVFGSGTTLTVL | – | – | – | 0.03
SKD chimeric bovine-human IgG1 (ultralong CDR3) (antibody) VH: QVQLRESGPSLVKPSQTLSLTCTASGFSLSDKAVGWVRQAPGKALEWLGSIDTGGNTGYNPGLKSRLSITKDNSKSQVSLSVSSVTTEDSATYYCTTVHQRTSEKRSCPGGSSRRYPSGASCDVSGGACACYVSNCRGVLCPTLNEIVAYTYEWHVDAWGQGLLVTVSS VL: QAVLNQPSSVSGSLGQRVSITCSGSSSNVGNGYVSWYQLIPGSAPRTLIYGDTSRASGVPDRFSGSRSGNTATLTISSLQAEDEADYFCASAEDSSSNAVFGSGTTLTVL | 0.16 | – | – | –
